Measurements reported in patent US20220153839A1 (NBE THERAPEUTICS, published 2022).

B1: ERR1-TOP15 chimeric rabbit/human Fab (Fab, V domains shown)
VH: QEQLVESGGRLVTPGGSLTLTCAASGFSPSSYWMSWVRQAPGKGLEWIGAIYVDSGSAYYASWAKSRFTISKTSSTTVDLKMTSLTTEDTAIYFCARDGWGSDVWGPGTLVTISS
VL: SYELTQLPSVSVSLGQTARITCGGNSIGSKAVHWYQQKPGLAPGLLIYDDDERPSGVPDRFSGSNSGDTATLTISGAQAGDEADYYCQLWDSSAGAYVFGGGTQLTVTG
notes: Chimeric rabbit/human Fab with His tag, expressed in E. coli (pET11a); lambda light chain
B2: ERR1-TOP54 chimeric rabbit/human Fab (Fab, V domains shown)
VH: QSLEESGGRLVTPGTPLTLTCTASGFSLSDYYMSWVRQAPGEGLEWIGTIYGGSGNTWYATWAKGRFTISKTSTTVDLKITSPTTEDTATYFCARDFGLSTGGLWGPGTLVTISS
VL: SYELTQLPSVSVSLGQTARITCGGNSIGSKAVNWYQQKPGLAPGLLIYDDDERPSGVPDRFSGSNSGDTATLTISGAQAGDEADYYCQLWDSSARAFVFGGGTQLTVTG
notes: as for B1
B3: ERR1-TOP43 chimeric rabbit/human Fab (Fab, V domains shown)
VH: QSLEESGGRLVTPGTPLTLTCTVSGFSLSSYWMSWVRQAPGKGLEWIGAIYGSGNTYYASWAKGRFTISKTSTTVDLKITSPTTEDTATYFCARDVHSTATDLWGPGTLVTISS
VL: SYELTQLPSVSVSLGQTARITCGGNNIGSKAVNWYQQKPGLAPGLLIYNDDERPSGVPDRFSGSNSGDTATLTISGAQAGDEADYYCQLWDSSAGAYVFGGGTQLTVTG
notes: as for B1
B4: ERR1-324 chimeric rabbit/human Fab (Fab, V domains shown)
VH: QSLEESGGGLVQPGESLTLTCTVSGFSLSRNGMTWVRQAPGKGLEWIGIITSSGDKYYATWAKGRFTISKTSSTTVDLKMTSLTTEDTATYFCARGTVSSDIWGPGTLVTISS
VL: ELVLTQTPSPVSAAVGGTVTINCQASQSVYGNNELAWYQQKPGQPPKLLIYRASILTSGVPSRFKGSGSGTQFTLTISNVQREDAATYYCLGGYVSQSYRAAFGGGTELEIL
notes: Chimeric rabbit/human Fab with His tag, expressed in E. coli (pET11a); kappa light chain
B5: XBR1-402 chimeric rabbit/human Fab (Fab, V domains shown)
VH: QEQQKESGGGLFKPTDTLTLTCTASGFDISSYYMSWVRQAPGNGLEWIGAIGISGNAYYASWAKSRSTITRNTNLNTVTLKMTSLTAADTATYFCARDHPTYGMDLWGPGTLVTVSS
VL: SYELTQLPSVSVSLGQTARITCEGNNIGSKAVHWYQQKPGLAPGLLIYDDDERPSGVPDRFSGSNSGDTATLTISGAQAGDEADYYCQVWDSSAYVFGGGTQLTVTG
notes: Chimeric rabbit/human Fab with His tag, expressed in E. coli (pC3C-His); lambda light chain
B6: ERR1-TOP40 chimeric rabbit/human Fab (Fab, V domains shown)
VH: QEQLEESGGRLVTPGTPLTLTCTASGFSLSNYYMSWVRQAPGKGLEYIGIISSSGSTYYASWAKGRFTISKTSSTTVDLKITSPTTEDTATYFCARLYVSDSTANLWGPGTLVTVSS
VL: DIVLTQTPSSTSAAVGGTVTIKCQASQSIDSYLAWYQQKPGQPPKLLIYGASNLASGVPSRFSGSRSGTEYILTISGVQREDAATYYCLGGYPNYFHRTAFGGGTKLEIK
notes: as for B4
B7: ERR1-306 chimeric rabbit/human Fab (Fab, V domains shown)
VH: QEQLKESGGGLVQPGGSLKLSCKASGFDLSNYGVSWVRQAPGKGLEWIGYIDPTFDYTYYASWVNGRFSISRENTQNTVSLQINSLTPADTATYFCARWVYGVDDYGDGNWLDLWGQGTLVTISS
VL: QFVLTQSPSVSAALGASAKLTCTLSSAHKTYTIDWYQQQQGEAPRYLMELKSDGSYTKGTGVPDRFSGSSSGADRYLIIPSVQADDEADYYCGTDYSGGYVFGGGTQLTVTG
notes: as for B1

Tests used:
[1] = target: T1, hROR2 (human, UniProt Q01974); assay: flow cytometry on 63-12 / hROR2 cells; anti-His Alexa Fluor 488
T1 construct: full length, on the cell surface; also called 63-12 / hROR2; ROR2 on T47D cells
Procedure: Flow cytometry: Cells were stained using standard flow cytometry methodology. Briefly, for purified anti-ROR1 Fab (FIG. 3), 0.1-1×10⁶ cells were stained with 1000 ng/100 μL of Fab on ice for 1 h. After washing twice with ice-cold flow cytometry buffer (PBS containing 1% (v/v) BSA, 0.1% sodium azide and 1 mM EDTA), the cells were incubated with a 1:1000 dilution of a mouse anti-His tag mAb conjugated to Alexa Fluor 488 (Qiagen) in 100 μL flow cytometry buffer on ice for 30 min. For purified anti-ROR1 IgG1 (FIG. 8), 0.1-1×10⁶ cells were blocked by 4% goat serum for 15 min at room temperature and then incubated with 100 ng/100 μL of IgG on ice for 1 h. After washing twice with ice-cold flow cytometry buffer, cells were stained with a 1:500 dilution of goat anti-human IgG, Fcγ pAbs conjugated to APC (Jackson ImmunoResearch) in 100 μL flow cytometry buffer on ice for 30 min. For commercial goat anti human ROR1 polyclonal antibody (FIG. 8), 0.1-1×10⁶ cells were stained with 200 ng/100 μL of Ab on ice for 1 h. […] Finally, 4′,6-diamidino-2-phenylindole (DAPI) was added to a final concentration of 100 ng/mL to exclude dead cells from the analysis. Cells were analyzed using a FACSCalibur instrument (BD Biosciences) and FlowJo analytical software (Tree Star, Ashland, Oreg.).

[2] = target: T2, hFc-hROR1 (extracellular domain of human ROR1 fused to the Fc domain of human IgG1) (human, UniProt Q01973 30-406); assay: SPR (Biacore X100); hFc-hROR1 captured by anti-human Fcγ antibody on CM5; Fab as analyte; 1:1 Langmuir fit
T2 construct: extracellular domain; also called hFc-ROR1; not shown: Fc domain of human IgG1
Procedure: (A) Shown are Biacore X100 sensorgrams obtained for the binding of each Fab to hFc-hROR1 captured by anti-human Fcγ antibody immobilized on CM5 chip after instantaneous background depletion. Fabs were injected at five different concentrations with the highest concentration indicated in table (B), one of the five concentrations was tested in duplicates. The equilibrium dissociation constant (Kd) was calculated from koff/kₒₙ (kₒₙ, association rate constant; koff, dissociation rate constant).
Surface plasmon resonance: Surface plasmon resonance for the measurement of the affinities of all Fabs to hFc-hROR1 and for epitope mapping studies were performed on a Biacore X100 instrument using Biacore reagents and software (GE Healthcare, Piscataway, N.J.). Anti-Human IgG (Fc) antibody was immobilized on a CM5 sensor chip following the instruction of Human Antibody Capture Kit (GE Healthcare, Piscataway, N.J.). The sensor chip included an empty flow cell for instantaneous background depletion. All binding assays used 1×HBS-EP+ running buffer (10 mM HEPES, 150 mM NaCl, 3 mM EDTA (pH 7.4), and 0.05% (v/v) Surfactant P20) and a flow rate of […]. […] The sensor chip was regenerated with […] from the Human Antibody Capture Kit without any loss of binding capacity. Calculation of association (kₒₙ) and dissociation (koff) rate constants was based on a 1:1 Langmuir binding model. The equilibrium dissociation constant (Kd) was calculated from koff/kₒₙ. For epitope mapping studies, each Fab was prepared at 500 nM alone in 1×HBS-EP+ running buffer and then injected in order as indicated in FIG. 5.

[3] = target: T3, Fr; assay: ELISA on directly coated hFc fusion proteins of hROR1 domains; anti-His-HRP; A405
T3 construct: also called hFc-hROR1-Fr
Procedure: (§1) ELISA: For ELISA (FIG. 2), each well of a 96-well Costar 3690 plate (Corning, Corning, N.Y.) was coated with 100 ng anti-human IgG1 Fc in 25 μL coating buffer (0.1 M Na₂CO₃, 0.1 M NaHCO₃, pH 9.6) for 1 h at 37° C. After blocking with 150 μL 3% (w/v) BSA/TBS for 1 h at 37° C., hFc-hROR1 or hFc-mROR1 was captured following incubation at 100 ng/50 μL for 1 h at 37° C. Then 100 ng/50 μL of Fab was applied in each well at 37° C. 2 h later, 50 μL of a 1:1000 dilution of a mouse anti-His tag mAb conjugated to horse radish peroxidase (HRP) (R&D Systems, Minneapolis, Minn.) in 1% (w/v) BSA/TBS was used to detect the Fab. To determine the epitopes (FIG. 4), hFc fusion proteins containing different domains of hROR1 were coated directly, followed by incubation with Fab before detection by mouse anti-His tag mAb conjugated to HRP. Washing with PBS was repeated and colorimetric detection was performed using 2,2′-azino-bis(3-ethylbenzthiazoline)-6-sulfonic acid (Roche) as substrate according to the manufacturer's directions. The absorbance was measured at 405 nm using a SpectraMax M5 microplate reader (Molecular Devices; Sunnyvale, Calif.) and SoftMax Pro software (Molecular Devices).

[4] = target: T4, Kr (human, UniProt Q01973); assay: as above
T4 construct: Kringle domain of the extracellular domain; also called hFc-hROR1-Kr
Procedure: as §1

[5] = target: T5, Fr + Ki (human, UniProt Q01973); assay: as above
T5 construct: Frizzled and Kringle domains of the extracellular domain; also called hFc-hROR1-Fr-Ki
Procedure: as §1

[6] = target: T6, Ig (human, UniProt Q01973); assay: as above
T6 construct: Ig domain of the extracellular domain; also called hFc-hROR1-Ig
Procedure: as §1

[7] = target: T7, hFc-mROR1 (extracellular domain of mouse ROR1 fused to the Fc domain of human IgG1) (human; mouse, UniProt Q9Z139 30-406); assay: ELISA; hFc fusion captured by coated anti-human IgG1 Fc; anti-His-HRP; A405
T7 construct: extracellular domain; not shown: Fc domain of human IgG1
Procedure: (§2) The binding of each chimeric rabbit/human Fab to hROR1 and mROR1 fused with human IgG1 Fc (hFc-hROR1 and hFc-mROR1) was analyzed by ELISA. hFc-ROR1 or hFc-mROR1 were captured by anti-human IgG1 Fc antibody immobilized on plate and then incubated with hROR1 specific Fabs comprising a His-tag via detection with mouse anti-His tag.
as §1

[8] = target: T8, hFc-hROR2 (extracellular domain of human ROR2 fused to the Fc domain of human IgG1) (human, UniProt Q01974 34-403); assay: ELISA as for hFc-hROR1; third bar series, keyed 'hFc-hROR1' a second time on the sheet, taken as hFc-hROR2 by legend paragraph 27
T8 construct: extracellular domain; not shown: Fc domain of human IgG1
Procedure: as §2, §1

T8 sequence (Q01974 34-403): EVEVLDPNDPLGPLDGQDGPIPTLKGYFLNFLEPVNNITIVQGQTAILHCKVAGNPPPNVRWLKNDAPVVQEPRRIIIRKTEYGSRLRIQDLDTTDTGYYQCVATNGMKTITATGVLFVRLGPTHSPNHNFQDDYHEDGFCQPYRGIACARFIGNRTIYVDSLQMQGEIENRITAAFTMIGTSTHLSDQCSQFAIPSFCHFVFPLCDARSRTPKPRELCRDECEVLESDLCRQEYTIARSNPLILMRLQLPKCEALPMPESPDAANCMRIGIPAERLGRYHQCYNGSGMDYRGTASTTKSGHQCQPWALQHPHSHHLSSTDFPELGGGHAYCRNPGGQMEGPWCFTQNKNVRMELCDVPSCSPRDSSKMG
T6 sequence (Q01973 42-147 limits assumed): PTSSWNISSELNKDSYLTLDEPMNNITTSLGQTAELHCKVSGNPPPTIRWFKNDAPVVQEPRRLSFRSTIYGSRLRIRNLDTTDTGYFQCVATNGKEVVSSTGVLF
T3 sequence (chain, as listed by the source limits assumed): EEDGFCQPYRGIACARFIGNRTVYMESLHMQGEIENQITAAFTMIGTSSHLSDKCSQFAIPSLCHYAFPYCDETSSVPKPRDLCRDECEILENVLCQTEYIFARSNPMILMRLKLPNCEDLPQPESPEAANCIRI
T7 sequence (Q9Z139 30-406): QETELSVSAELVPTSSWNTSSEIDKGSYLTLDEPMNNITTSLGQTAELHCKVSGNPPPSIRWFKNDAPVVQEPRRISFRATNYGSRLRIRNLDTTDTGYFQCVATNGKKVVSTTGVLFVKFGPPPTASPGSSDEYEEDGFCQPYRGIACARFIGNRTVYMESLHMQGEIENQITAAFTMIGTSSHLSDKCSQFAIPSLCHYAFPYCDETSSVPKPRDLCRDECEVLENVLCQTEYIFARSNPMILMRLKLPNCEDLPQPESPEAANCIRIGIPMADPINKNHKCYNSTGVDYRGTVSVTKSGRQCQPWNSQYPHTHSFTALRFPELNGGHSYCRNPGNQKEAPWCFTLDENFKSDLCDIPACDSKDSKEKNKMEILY
T2 sequence (Q01973 30-406): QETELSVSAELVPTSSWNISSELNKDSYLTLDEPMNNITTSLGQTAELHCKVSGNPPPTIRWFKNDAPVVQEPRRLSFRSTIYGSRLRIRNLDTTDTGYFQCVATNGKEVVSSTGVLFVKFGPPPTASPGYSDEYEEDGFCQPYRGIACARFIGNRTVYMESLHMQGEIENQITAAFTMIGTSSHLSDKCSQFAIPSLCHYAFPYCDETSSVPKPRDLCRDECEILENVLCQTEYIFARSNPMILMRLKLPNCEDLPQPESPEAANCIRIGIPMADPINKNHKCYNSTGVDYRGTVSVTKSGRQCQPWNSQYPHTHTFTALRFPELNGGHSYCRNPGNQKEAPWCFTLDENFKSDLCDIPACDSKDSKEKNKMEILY
T1 sequence (Q01974 34-943 limits assumed): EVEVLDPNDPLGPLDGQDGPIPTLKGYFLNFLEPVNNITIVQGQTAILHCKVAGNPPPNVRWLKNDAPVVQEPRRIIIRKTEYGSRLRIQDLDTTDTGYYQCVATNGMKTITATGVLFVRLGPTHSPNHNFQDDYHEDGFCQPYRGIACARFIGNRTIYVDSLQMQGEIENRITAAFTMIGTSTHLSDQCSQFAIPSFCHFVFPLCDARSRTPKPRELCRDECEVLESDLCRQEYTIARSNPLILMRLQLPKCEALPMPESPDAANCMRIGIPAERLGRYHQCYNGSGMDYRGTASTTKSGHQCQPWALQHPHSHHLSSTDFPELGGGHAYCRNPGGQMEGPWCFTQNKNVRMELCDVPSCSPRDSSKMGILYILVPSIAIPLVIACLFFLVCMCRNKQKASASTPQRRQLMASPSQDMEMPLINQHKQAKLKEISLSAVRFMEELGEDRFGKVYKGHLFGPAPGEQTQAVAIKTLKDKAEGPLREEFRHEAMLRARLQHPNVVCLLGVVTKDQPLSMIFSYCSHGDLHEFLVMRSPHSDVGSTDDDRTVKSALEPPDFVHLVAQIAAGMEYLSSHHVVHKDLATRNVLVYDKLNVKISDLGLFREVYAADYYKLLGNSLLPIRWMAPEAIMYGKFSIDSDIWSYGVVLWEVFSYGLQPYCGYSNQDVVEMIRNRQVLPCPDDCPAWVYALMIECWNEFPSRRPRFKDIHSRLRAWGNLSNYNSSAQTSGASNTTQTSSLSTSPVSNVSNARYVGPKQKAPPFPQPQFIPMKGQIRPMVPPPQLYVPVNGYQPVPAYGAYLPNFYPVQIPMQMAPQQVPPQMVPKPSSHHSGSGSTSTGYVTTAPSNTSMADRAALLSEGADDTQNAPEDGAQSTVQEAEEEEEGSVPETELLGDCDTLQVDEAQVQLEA
T5 sequence (Q01973 165-391 limits assumed): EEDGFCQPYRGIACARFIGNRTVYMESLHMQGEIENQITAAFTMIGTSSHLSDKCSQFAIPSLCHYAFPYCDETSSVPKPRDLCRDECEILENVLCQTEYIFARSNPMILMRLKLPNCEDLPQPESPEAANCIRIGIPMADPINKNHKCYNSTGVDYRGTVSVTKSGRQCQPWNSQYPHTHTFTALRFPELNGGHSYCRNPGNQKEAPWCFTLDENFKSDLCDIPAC
T4 sequence (Q01973 312-391 limits assumed): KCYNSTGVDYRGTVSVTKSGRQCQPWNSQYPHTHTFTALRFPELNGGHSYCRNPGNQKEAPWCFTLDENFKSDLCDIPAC

| Binder | binding result [1] | Kd [2] | koff [2] | kon [2] | binding result [3] | binding result [4] | binding result [5] | binding result [6] | binding result [7] | binding result [8] |
| --- | --- | --- | --- | --- | --- | --- | --- | --- | --- | --- |
| B1 | no binding (tested: 1000 ng/100 µL) | 139 nM | 0.0654 s⁻¹ | 469000 M⁻¹ s⁻¹ | no binding | no binding | no binding | no binding | no binding (tested: 100 ng/50 µL) | no binding (tested: 100 ng/50 µL) |
| B2 | no binding (tested: 1000 ng/100 µL) | 145 nM | 0.0688 s⁻¹ | 475000 M⁻¹ s⁻¹ | no binding | no binding | no binding |  | no binding (tested: 100 ng/50 µL) | no binding (tested: 100 ng/50 µL) |
| B3 | no binding (tested: 1000 ng/100 µL) | 1.11 nM | 0.000501 s⁻¹ | 451000 M⁻¹ s⁻¹ | no binding | no binding | no binding | no binding | no binding (tested: 100 ng/50 µL) | no binding (tested: 100 ng/50 µL) |
| B4 |  |  |  |  | no binding | no binding | no binding |  |  | no binding (tested: 100 ng/50 µL) |
| B5 | no binding (tested: 1000 ng/100 µL) | 5.81 nM | 0.00643 s⁻¹ | 1.11e+06 M⁻¹ s⁻¹ |  | no binding | no binding | no binding | no binding (tested: 100 ng/50 µL) | no binding (tested: 100 ng/50 µL) |
| B6 |  |  |  |  | no binding | no binding | no binding |  |  | no binding (tested: 100 ng/50 µL) |
| B7 | no binding (tested: 1000 ng/100 µL) |  |  |  | no binding | no binding | no binding | no binding |  | no binding (tested: 100 ng/50 µL) |
